Experimental data reported in paper PMC7603899 (Journal of molecular biology, 2020).

Biological target: the molecule itself
Test: crystal structure

B1: Atg11 residues 699-800 (Atg11_(699-800)) (domain or fragment, S. cerevisiae, UniProt Q12527 699-800, looked up)
chain: NNHQIQELESNVDDLLHQLQLLKEENNRKSMQISEMGKKISDLEVEKTAYRETLTNLNQELARLTNEEQSHRTEIFTLNASFKKQLNDIISQDNEKIEKLTG
  stoichiometry N: 2
